Results on 10 molecules are retold here after patent US20170073430A1 (published 2017).

Read-outs that look alike come from different tables or passages of the source.

Among the targets are rSC37.39; SC37.78; SC37.23; rSC37.17; SC37.9; rSC37.67.
What all share (assay): SPR
For assay [1], the target named is T1, monomeric hRNF43-His antigen (UniProt Q68DV7 24-197).
T1 chain: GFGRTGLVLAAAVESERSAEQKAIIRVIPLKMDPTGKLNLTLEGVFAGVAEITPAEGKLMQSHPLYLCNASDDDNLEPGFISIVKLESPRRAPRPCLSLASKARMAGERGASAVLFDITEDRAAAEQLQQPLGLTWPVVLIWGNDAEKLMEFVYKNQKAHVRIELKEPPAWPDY

The target in assay [2] is T1, monomeric hRNF43-His antigen.
Assay [3] shares this target.
Assay [4] has the same target.

B1: SC37.3 (antibody, V domains shown)
VH: QIQLVQSGPELKKPGETVKISCKASGYTFTNYGMNWVRQAPGKGLKWVGWINTNTGEPTYADDFKGRFAFSLETSASTAYLQISNLKNEDMSTYFCAGSHDYSFAYWGQGTLVTVSA
VL: QAVVTQESALTTSPGETVTFTCRSSTGAVTTSNYANWVQEKPDHLFTGLIGGTNNRAPGVPARFSGSLIGDKAALTITGAQTEDEAIYFCALWYSNHWVFGGGTKLTVL
B1 returned a dissociation constant (Kd) in [1] of 44 nM.

B2: SC37.17 (antibody, V domains shown)
VH: EVQLQQSGADLVKPGASVKLSCTGSGFNIKDTYIHWVRQRPEQGLEWIGRIDPANGKANYDPKFQGKATMTADTSSKTVYVQLSSLTSEDTAVYYCALGGGYYGMDYWGRGTSVTVSS
VL: NIVLTQSPASLAVSLGQRATISCRASESVDSYGNSFMHWYQQKPGQPPKLLIYLASNLESGVPARFSGSGSRTDFTLTIDPVEADDAATYYCQQNNEDPLTFGAGTKLELK
On to B2, for which the Kd in [2] amounted to 9.3 nM.

B3: hSC37.17 (antibody, V domains shown)
VH: QVQLVQSGAEVKKPGASVKVSCKASGFNIKDTYIHWVRQAPGQGLEWMGRIDPANGKANYDPKFQGRVTMTRDTSTSTVYMELSSLRSEDTAVYYCALGGGYYGMDYWGQGTLVTVSS
VL: DIVMTQSPDSLAVSLGERATINCRASESVDSYGNSFMHWYQQKPGQPPKLLIYLASNLESGVPDRFSGSGSGTDFTLTISSLQAEDVAVYYCQQNNEDPLTFGQGTKVEIKR
Regarding B3, the Kd in [2] came out at 1.2 nM.

B4: hSC37.67 (antibody, V domains shown)
VH: QVQLVQSGAEVKKPGASVKVSCKASGYTFTRYWIEWVRQAPGQRLEWMGEILPGSGSTNYNEKFKGRVTITADTSASTAYMELSSLRSEDTAVYYCERRGAYWGQGTLVTVSS
VL: DIQMTQSPSSLSASVGDRVTITCKASEDIYNRLAWYQQKPGKAPKLLISGATSLETGVPSRFSGSGSGTDYTLTISSLQPEDFATYYCQQNWSTPPTFGGGTKVEIKR
Regarding B4, the dissociation constant Kd in assay [3] was found to be 4.2 nM.

B5: hSC37.39 (antibody, V domains shown)
VH: QVQLVQSGAEVKKPGASVKVSCKASGYTFTTYTIHWVRQAPGQGLEWMGYINPRSGYTEYNQKFQDRVTMTRDTSTSTVYMELSSLRSEDTAVYYCARSYEFWGQGTTVTVSS
VL: EIVMTQSPATLSVSPGERATLSCKASQNVGINVAWYQQKPGQAPRALIYSASYRYSGIPARFSGSGSGTEFTLTISSLQSEDFAVYYCHQYKTYPYTFGGGTKVEIKR
Consider B5, for which binding in [4] was characterised by a dissociation constant (Kd) of 0.34 nM.

B6: SC37.39 (antibody, V domains shown)
VH: QVQLQQSAAELARPGASVKMSCKASGYTFTTYTIHWVKQRPGQGLKWIGYINPRSGYTEYNQKFQDKTTMTSDNSSSTAYIQLSSLTSEDSAVYYCARSYEFWGQGTTLTVSS
VL: DIVMTQSQKFMSTSGGDRVSVTCKASQNVGINVAWYQQKPGQSPKALIYSASYRYSGVPNRFTGSGSGTDFTLTISNVQSEDLGDYFCHQYKTYPYTFGGGTKLEIK
Turning to B6, the Kd in [4] is 1.1 nM.

B7: SC37.67 (antibody, V domains shown)
VH: QVQLQQSGAELMKPGASVKISCKATGYTFSRYWIEWVKQRPGHGLEWIGEILPGSGSTNYNEKFKGKATFTADTSSNTAYMQLTSLTSEDSAVYFCERRGAYWGQGTLVTVSA
VL: DIQMTQSSSSFSVSLGDRVTITCKASEDIYNRLAWYQQKPGNAPRLLISGATSLETGVPSRFSGSGSGKDYTLSITSLQTEDVATYHCQQNWSTPPTFGGGTKLEIK
For the molecule B7, binding in [3] was characterised by a dissociation constant (Kd) of 3.5 nM.

B8: SC37.2 (antibody, V domains shown)
VH: EVNLVESGGGLVQPGGSLRLSCATSGFTFSDFDMEWVRQPPGKRLEWIAASRNKANDYTTQYSASVKGRFIVSRDTSQSIVYIQMNALRAEDTAIYYCARDRYDYALDYWGQGTSVTVSS
VL: DIVMSQSPSSLAVSVGEKVTMSCKSSQTLLYYSNQKNYLAWYQRKPGLSPKLLIYWASTRDSGVPDRFTGSGSGTDFTLTISSVKAEDLAVYYCQQYYNYPLTFGAGTKLELK
Regarding B8, the Kd in [1] is 220 nM.

B9: RNF43 (other)
chain: T1 chain
Take B9: the Kd with rSC37.39 is 1 nM; in the assay with SC37.78, 10.8 nM; in the assay with SC37.23, 23.7 nM; with rSC37.17 it was 9.3 nM; with SC37.9, 160 nM; with rSC37.67, 5.4 nM.

B10: hSC37.2 (antibody, V domains shown)
VH: EVQLVESGGGLVQPGGSLRLSCAASGFTFSDFDMEWVRQAPGKGLEWVGASRNKANDYTTQYSASVKGRFTISRDTSKNSLYLQMNSLKTEDTAVYYCARDRYDYALDYWGQGTTVTVSS
VL: DIQMTQSPSSLSASVGDRVTITCKSSQTLLYYSNQKNYLAWYQQKPGKVPKLLIYWASTRDSGVPSRFSGSGSGTDFTLTISSLQPEDVATYYCQQYYNYPLTFGQGTKLEIKR
Molecule B10 came in with a Kd in assay [1] of 120 nM.
